One test deals with T1, GLP-1R K202A (Homo sapiens).
T1 chain: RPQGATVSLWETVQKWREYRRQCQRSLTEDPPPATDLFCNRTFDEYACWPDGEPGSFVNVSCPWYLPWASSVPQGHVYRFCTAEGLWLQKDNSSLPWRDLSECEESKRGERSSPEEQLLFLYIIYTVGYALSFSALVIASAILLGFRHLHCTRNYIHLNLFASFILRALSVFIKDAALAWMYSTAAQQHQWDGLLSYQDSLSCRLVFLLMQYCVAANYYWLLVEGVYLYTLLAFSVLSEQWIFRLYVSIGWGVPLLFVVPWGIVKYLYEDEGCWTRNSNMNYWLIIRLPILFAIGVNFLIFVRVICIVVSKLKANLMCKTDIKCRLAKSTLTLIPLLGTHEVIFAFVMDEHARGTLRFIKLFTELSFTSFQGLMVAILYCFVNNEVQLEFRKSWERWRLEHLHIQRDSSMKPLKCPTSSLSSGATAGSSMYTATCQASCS

A further test has as its target T2, GLP-1R H212A (Homo sapiens).
T2 chain: T1 chain with A179K, H189A

A further test has as its target T3, GLP-1R P137A (Homo sapiens).
T3 chain: T1 chain with P114A, A179K

The next test deals with T4, GLP-1R Y205A (Homo sapiens).
T4 chain: T1 chain with A179K, Y182A

A further test deals with T5, GLP-1R L141A (Homo sapiens).
T5 chain: T1 chain with L118A, A179K

The target of a further test is T6, GLP-1R L201A (Homo sapiens).
T6 chain: T1 chain with L178A, A179K

Changes are numbered by the printed parent chain. No end group written: not given here.

What is called IC50 is the concentration at which inhibition is half-maximal. A higher IC50 goes with a need for much substance. For HSQGTFTSDYSKYLDSRRAQDFVQWLMNTKRNRNNIA [oxyntomodulin], the IC50 with GLP-1R K202A amounted to 191 nM; with GLP-1R H212A it was 12.9 nM; in the test with GLP-1R P137A, 74.1 nM; with GLP-1R Y205A, 36.3 nM; with GLP-1R L141A, 603 nM; in the test with GLP-1R L201A, 107 nM.
In the case of HAEGTFTSDVSSYLEGQAAKEFIAWLVKGR (not fully specified (C-terminus)) [glucagon-like peptide-1], the IC50 turned out to be 6.03 nM with GLP-1R K202A; 1.23 nM in the test with GLP-1R H212A; 40.7 nM in the test with GLP-1R P137A; 3.09 nM in the test with GLP-1R Y205A; 14.1 nM with GLP-1R L141A; 38.9 nM with GLP-1R L201A.

The values above are taken from publication PMC8748714 (2022).
